Reference: PMC2917807 (Journal of molecular biology, 2010)

Tests used:
[1] = target: LexA-SoxS bait fusion protein (pGILDA-SoxS), wild type SoxS (Escherichia coli) (UniProt P0A9E2); experiment: two-hybrid
[2] = target: T1, LexA-SoxS bait fusion protein (pGILDA-SoxS), wild type SoxS (Escherichia coli, UniProt P0A9E2 1-107); experiment: two-hybrid
T1 sequence (looked up): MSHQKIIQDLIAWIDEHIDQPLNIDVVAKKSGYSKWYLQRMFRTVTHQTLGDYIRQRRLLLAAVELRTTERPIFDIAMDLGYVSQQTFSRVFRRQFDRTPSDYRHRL

Sequence of B42AD-αCTD prey fusion protein (pB42AD-αCTD) (domain or fragment) (A1AGI6 whole entry, the tested form may be a part): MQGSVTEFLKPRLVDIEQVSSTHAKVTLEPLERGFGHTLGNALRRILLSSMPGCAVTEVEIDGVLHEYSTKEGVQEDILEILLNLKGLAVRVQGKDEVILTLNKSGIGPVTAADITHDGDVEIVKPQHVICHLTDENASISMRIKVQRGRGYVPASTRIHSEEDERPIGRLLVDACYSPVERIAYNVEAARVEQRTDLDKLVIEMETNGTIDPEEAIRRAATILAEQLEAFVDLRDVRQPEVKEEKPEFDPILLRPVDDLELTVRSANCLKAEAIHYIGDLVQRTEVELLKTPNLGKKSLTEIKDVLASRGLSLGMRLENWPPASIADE

Molecule	induction ratio of reporter β-galactosidase [1]	induction ratio of reporter β-galactosidase [2]
B42AD-αCTD prey fusion protein (pB42AD-αCTD) (domain or fragment)	25	–
B42AD-σ^70 R4 prey fusion protein (pB42AD-σ^70 R4), wild type region 4 of σ^70 (domain or fragment, Escherichia coli, UniProt P00579 530-613, looked up) LPLDSATTESLRAATHDVLAGLTAREAKVLRMRFGIDMNTDYTLEEVGKQFDVTRERIRQIEAKALRKLRHPSRSEVLRSFLDD	–	14
